Like-named read-outs stand apart in the source and are kept apart here.
Columns and labels:
[1] = target: recombinant human IgE, SE44 (human) (UniProt P01854); assay: ELISA titration on plate-coated SE44 (human IgE); Fab detected with biotin-sheep anti-human Fd and Neutra-avidin-AP (Example 6)
[2] = target: recombinant human IgE, SE44 (human) (UniProt P01854); assay: as above; remark: listed apart in the source

EC50 (read off the curve) [1]: 0.05 µg/mL
EC50 (read off the curve) [2]: 0.04 µg/mL
B1: murine TES-C21 Fab (Fab, from another filing, V domains shown)
VH: QVQLQQSGAELMKPGASVKISCKTTGYTFSMYWLEWVKQRPGHGLEWVGEISPGTFTTNYNEKFKAKATFTADTSSNTAYLQLSGLTSEDSAVYFCARFSHFSGSNYDYFDYWGQGTSLTVSS
VL: DILLTQSPAILSVSPGERVSFSCRASQSIGTNIHWYQQRTDGSPRLLIKYASESISGIPSRFSGSGSGTEFTLNINSVESEDIADYYCQQSDSWPTTFGGGTKLEIK

Source: patent US20060251644A1
